Results reported in publication PMC4279229 (Molecular Biology of the Cell, 2015).

Molecular target: mouse VASP (wild-type, full-length) (mouse, UniProt P70460 1-375)
Test: immunolabeling of protein-coated beads

mouse VASP (wild-type, full-length), sequence (P70460 whole entry): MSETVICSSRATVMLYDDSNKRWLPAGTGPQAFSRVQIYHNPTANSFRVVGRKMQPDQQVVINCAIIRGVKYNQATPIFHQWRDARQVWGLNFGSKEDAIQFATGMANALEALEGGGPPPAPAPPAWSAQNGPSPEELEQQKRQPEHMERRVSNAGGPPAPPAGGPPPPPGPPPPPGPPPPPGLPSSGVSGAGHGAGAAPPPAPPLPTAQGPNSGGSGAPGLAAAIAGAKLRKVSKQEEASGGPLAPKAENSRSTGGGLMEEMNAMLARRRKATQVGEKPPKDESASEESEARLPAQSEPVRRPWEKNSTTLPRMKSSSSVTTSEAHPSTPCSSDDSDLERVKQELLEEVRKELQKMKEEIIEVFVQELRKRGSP

binding result: binds
B1: PRD-VCA-WAVE (PRD-VCA domain of human WAVE-2, Lys195-Asp498) (domain or fragment, UniProt Q9Y6W5 195-498, looked up)
chain: KIKTRKEEWEKMKMGQEFVESKEKLGTSGYPPTLVYQNGSIGCVENVDASSYPPPPQSDSASSPSPSFSEDNLPPPPAEFSYPVDNQRGSGLAGPKRSSVVSPSHPPPAPPLGSPPGPKPGFAPPPAPPPPPPPMIGIPPPPPPVGFGSPGTPPPPSPPSFPPHPDFAAPPPPPPPPAADYPTLPPPPLSQPTGGAPPPPPPPPPPGPPPPPFTGADGQPAIPPPLSDTTKPKSSLPAVSDARSDLLSAIRQGFQLRRVEEQREQEKRDVVGNDVATILSRRIAVEYSDSEDDSSEFDEDDWSD
